# From patent US20240043495A1, “DSG2 COMPOSITIONS AND METHODS FOR THE TREATMENT OF COVID-19” (priority 2020, published 2024)
# Key:
# [1] = target: Anti-DSG2 antibody; test: anti-DSG2 antibody MSD assay; inhibition of the signal of anti-DSG2 antibody at 1000 ng/mL (control)
# [2] = target: Anti-DSG2 antibody; test: anti-DSG2 antibody MSD assay; inhibition of the signal of anti-DSG2 antibody at 200 ng/mL (control)
# [3] = system: human iPSC cardiomyocytes; test: CiPA multielectrode array (MEA) assay, cardiomyocyte sodium spike; assay type: cell-based; settings: voltage (μV) at 0-96 hours; antibodies/IgG 0.5 μg/mL; lidocaine 10 μM; FIG. 5
# Method: To determine the effect of anti-DSG2 antibodies in cardiomyocytes, the cardiac in vitro proarrhythmia (CiPA) assay was performed (Sager et al. Am Heart J 2014; 167:292-300; the contents of which are herein incorporated by reference in its entirety). CiPA is envisioned to consist of four components: (1) an evaluation of the effects of test agents on cardiac ion channel assays; (2) in silico modeling of the cardiac action potential based on the ion channel results to integrate the data with cardiac function; (3) experimental measurement of test agent effects in human ventricular myocytes to confirm the modeling result; and (4) scoring the results. […] The sodium spike quantified below is a measurement of the specific sodium channel current in the cardiomyocyte and is also described in Blinova K, et al. Cell Rep. […] The parameters evaluated include measuring a change in the spike in the component of electrical signal propagation (e.g. sodium spike) and cell index—a function of cell impedance and cell number. […]
# Commercially available anti-DSG2 antibodies were tested in the cardiomyocyte CiPA assay. […] The voltage (μV) is measured at time intervals of 0, 1 hour, 12 hours, 24 hours, 48 hours, 72 hours, and 96 hours. […]
# [4] = system: human iPSC cardiomyocytes; test: iPSC-derived cardiomyocyte MEA assay, cell index; assay type: cell-based; settings: antibodies 0.00005 to 5 μg/mL; lidocaine 3 to 100 μM
# Method: To determine the effect of anti-DSG2 antibodies in cardiomyocytes, the cardiac in vitro proarrhythmia (CiPA) assay was performed (Sager et al. Am Heart J 2014; 167:292-300; the contents of which are herein incorporated by reference in its entirety). CiPA is envisioned to consist of four components: (1) an evaluation of the effects of test agents on cardiac ion channel assays; (2) in silico modeling of the cardiac action potential based on the ion channel results to integrate the data with cardiac function; (3) experimental measurement of test agent effects in human ventricular myocytes to confirm the modeling result; and (4) scoring the results. The multielectrode array (MEA) assay is a component of CiPA which uses human induced pluripotent stem cell (iPSC)-derived cardiomyocytes to evaluate two-dimensional excitation propagation by recording spontaneous ECG-like field potentials. The sodium spike quantified below is a measurement of the specific sodium channel current in the cardiomyocyte and is also described in Blinova K, et al. Cell Rep. 2018 Sep. 25; 24(13):3582-3592 (the contents of which are herein incorporated by reference in its entirety). […] The parameters evaluated include measuring a change in the spike in the component of electrical signal propagation (e.g. sodium spike) and cell index—a function of cell impedance and cell number. […]
# [5] = system: anti-DSG2 antibodies in sera of post-COVID-19 patients; test: Electrochemical immunoassay: blocking of post-COVID-19 patient sera binding to the DSG2 extracellular domain; parameters: species or system human; settings: fusion polypeptide 10 μg/mL, post-COVID-19 patient sera 10% (v/v), FIG. 3
# Method: DSG2 fusion polypeptides were investigated for the ability to block the binding of anti-DSG2 antibodies in sera of post-COVID-19 patients to the DSG2 extracellular domain in an electrochemical immunoassay. The fusion polypeptides were added to a final concentration of 10 μg/mL and patient sera were used at a final concentration of 10% (v/v). The results are shown in the series of bar charts in FIG. 3, where the numbers 001, 002, 003, 004, 005 and 006 indicate individual post-COVID-19 patient serum samples.
# In FIG. 3, the first data series from the left is for DSG2FP #1 (described above as amino acids 49-608 of SEQ ID NO:30; Linker (IEGRMD (SEQ ID NO: 28)); amino acids 100-330 of IgG1 (SEQ ID NO: 4). The second data series from the left is for DSG2(50-602)-6xHis, which is a fusion polypeptide of DSG2 amino acids 50-602 of SEQ ID NO: 1 (complete extracellular domain) to a hexahistidine peptide tag. The third data series from the left is for a combination of fusion polypeptides which includes EC1(50-155)-6xHis, a fusion of DSG2 amino acids 50-155 of SEQ ID NO: 1 (EC1) to a hexahistidine peptide tag and EC2(151-268)-6xHis, a fusion of DSG2 amino acids 151-268 of SEQ ID NO: 1 (EC2) to a hexahistidine peptide tag. The fourth data series from the left is for EA(491-602)-6xHis, a fusion of DSG2 amino acids 491-602 of SEQ ID NO: 1 (EA) to a hexahistidine peptide tag. […]
molecule,measurement,setting,value
"recombinant human desmoglein-2 Fc chimera protein, CF (R&D Systems) (Fc fusion)",% inhibition,[1],88.4%
same,% inhibition,[2],63.8%
"CCN(CC)CC(=O)Nc1c(C)cccc1C [Lidocaine, lidocaine]",effect on cardiomyocyte sodium spike,[3],dampen the sodium spike
same,effect on cell index (in words),[4],marked reduction in cell index and likely cell death
"DSG2(50-602)-6xHis: fusion polypeptide of DSG2 amino acids 50-602 of SEQ ID NO: 1 (complete extracellular domain) to a hexahistidine peptide tag (protein, listed as Homo sapiens, C-terminal hexahistidine tag) AWITAPVALREGEDLSKKNPIAKIHSDLAEERGLKITYKYTGKGITEPPFGIFVFNKDTGELNVTSILDREETPFFLLTGYALDARGNNVEKPLELRIKVLDINDNEPVFTQDVFVGSVEELSAAHTLVMKINATDADEPNTLNSKISYRIVSLEPAYPPVFYLNKDTGEIYTTSVTLDREEHSSYTLTVEARDGNGEVTDKPVKQAQVQIRILDVNDNIPVVENKVLEGMVEENQVNVEVTRIKVFDADEIGSDNWLANFTFASGNEGGYFHIETDAQTNEGIVTLIKEVDYEEMKNLDFSVIVANKAAFHKSIRSKYKPTPIPIKVKVKNVKEGIHFKSSVISIYVSESMDRSSKGQIIGNFQAFDEDTGLPAHARYVKLEDRDNWISVDSVTSEIKLAKLPDFESRYVQNGTYTVKIVAISEDYPRKTITGTVLINVEDINDNCPTLIEPVQTICHDAEYVNVTAEDLDGHPNSGPFSFSVIDKPPGMAEKWKIARQESTSVLLQQSEKKLGRSEIQFLISDNQGFSCPEKQVLTLTVCECLHGSGCREA",blocking activity (% inhibition),[5]; 100% inhibition = complete blocking,at least 70%
"EA(491-602)-6xHis: fusion of DSG2 amino acids 491-602 of SEQ ID NO: 1 (EA) to a hexahistidine peptide tag (protein, listed as Homo sapiens, C-terminal 6xHis tag) DINDNCPTLIEPVQTICHDAEYVNVTAEDLDGHPNSGPFSFSVIDKPPGMAEKWKIARQESTSVLLQQSEKKLGRSEIQFLISDNQGFSCPEKQVLTLTVCECLHGSGCREA",blocking activity (in words),[5],some effectiveness in blocking activity
